The values below come from PMC10576442, “Cullin‐associated and neddylation‐dissociated 1 regulate reprogramming of lipid metabolism through SKP1‐Cullin‐1‐F‐box^FBXO11‐mediated heterogeneous nuclear ribonucleoprotein A2/B1 ubiquitination and promote hepatocellular carcinoma” (Clinical and Translational Medicine, 2023).

The target of the test is T1, HA-FBXO11 fusion protein expressed in E. coli (UniProt Q86XK2 1-927).
T1 construct: FBXO11 with an HA tag, expressed in E. coli; The methods of the GST pull-down speak of total cell lysates, the results of purified proteins from E. coli; source: E. coli, purified
T1 sequence (looked up): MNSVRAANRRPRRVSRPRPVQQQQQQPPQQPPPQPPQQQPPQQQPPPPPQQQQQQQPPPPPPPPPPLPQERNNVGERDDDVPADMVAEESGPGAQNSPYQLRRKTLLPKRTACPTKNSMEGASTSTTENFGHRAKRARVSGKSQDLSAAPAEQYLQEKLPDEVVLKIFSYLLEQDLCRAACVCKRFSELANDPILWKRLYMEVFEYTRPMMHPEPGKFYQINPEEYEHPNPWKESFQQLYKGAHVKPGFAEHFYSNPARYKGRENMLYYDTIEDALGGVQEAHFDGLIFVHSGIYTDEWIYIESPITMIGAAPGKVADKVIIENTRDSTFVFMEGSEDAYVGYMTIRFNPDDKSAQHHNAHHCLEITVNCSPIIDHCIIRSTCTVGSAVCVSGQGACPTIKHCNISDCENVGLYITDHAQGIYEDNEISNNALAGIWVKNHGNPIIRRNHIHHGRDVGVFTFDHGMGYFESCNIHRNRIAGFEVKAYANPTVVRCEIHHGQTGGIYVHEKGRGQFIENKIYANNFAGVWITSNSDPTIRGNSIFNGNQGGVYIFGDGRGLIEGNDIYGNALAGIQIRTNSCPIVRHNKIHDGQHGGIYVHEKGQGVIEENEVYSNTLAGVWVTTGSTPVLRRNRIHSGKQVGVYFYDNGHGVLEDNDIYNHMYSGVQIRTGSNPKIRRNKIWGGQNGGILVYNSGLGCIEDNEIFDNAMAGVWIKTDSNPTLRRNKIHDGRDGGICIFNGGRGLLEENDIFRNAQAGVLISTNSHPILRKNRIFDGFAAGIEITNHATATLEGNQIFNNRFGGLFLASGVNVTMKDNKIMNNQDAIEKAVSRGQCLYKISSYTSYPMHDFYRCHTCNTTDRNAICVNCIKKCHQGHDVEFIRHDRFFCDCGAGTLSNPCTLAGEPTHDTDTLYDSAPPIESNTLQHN
The test can be described thus: pull-down; GST pull-down (Magne GST pull-down system), GST-hnRNPA2B1 immobilised on magnetic beads, overnight at 4 °C, HA-FBXO11 expressed in E. coli, western blot. The conditions noted are these: both partners purified. A general note: In western blotting, separated proteins are transferred to a membrane and probed.

B1: GST-hnRNPA2B1 (natural protein, UniProt P22626 1-353, looked up)
chain: MEKTLETVPLERKKREKEQFRKLFIGGLSFETTEESLRNYYEQWGKLTDCVVMRDPASKRSRGFGFVTFSSMAEVDAAMAARPHSIDGRVVEPKRAVAREESGKPGAHVTVKKLFVGGIKEDTEEHHLRDYFEEYGKIDTIEIITDRQSGKKRGFGFVTFDDHDPVDKIVLQKYHTINGHNAEVRKALSRQEMQEVQSSRSGRGGNFGFGDSRGGGGNFGPGPGSNFRGGSDGYGSGRGFGDGYNGYGGGPGGGNFGGSPGYGGGRGGYGGGGPGYGNQGGGYGGGYDNYGGGNYGSGNYNDFGNYNQQPSNYGPMKSGNFGGSRNMGGPYGGGNYGPGGSGGSGGYGGRSRY
notes: hnRNPA2B1 as a GST fusion protein; source: E. coli BL21 (DE3), purified (GST-tag purification resin)
As for B1, the binding result is given as “binds”.
